Here are results for three molecules from article PMC2171418 (The Journal of Cell Biology, 2005).

To fix the notation:
B1: Spc42p (natural protein, UniProt P36094 1-363, looked up)
chain: MNGSPTPKRYSSKSSRLYDDYYNIPYQYSNPTPMNRDYNDVGSRINADKLVPEEYKRNTEFINKAVQQNKELNFKLREKQNEIFELKKIAETLRSKLEKYVDITKKLEDQNLNLQIKISDLEKKLSDANSTFKEMRFPKVKDPMVDDDPVSENYDQINVPKHRAPDATGNPRTTNKVSNTSDQDSRLKAIERTLSVLTNYVMRSEDGNNDRMSPLPSPLNTILPINNRLNFQEPKRYNPTVKVNPSDDDIMMYESAELKRVEEEIEELKRKILVRKKHDLRKLSLNNQLQELQSMMDGDDNIKLDNVSKHNHATHRHSSQSSRDYSPSSDACLECSNDLYEKNRVKPENNMSETFATPTPNNR
B2: Spc110p (natural protein, UniProt P32380 1-944, looked up)
chain: MDEASHLPNGSLKNMEFTPVGFIKSKRNTTQTQVVSPTKVPNANNGDENEGPVKKRQRRSIDDTIDSTRLFSEASQFDDSFPEIKANIPPSPRSGNVDKSRKRNLIDDLKKDVPMSQPLKEQEVREHQMKKERFDRALESKLLGKRHITYANSDISNKELYINEIKSLKHEIKELRKEKNDTLNNYDTLEEETDDLKNRLQALEKELDAKNKIVNSRKVDDHSGCIEEREQMERKLAELERKLKTVKDQVLELENNSDVQSLKLRSKEDELKNLMNELNELKSNAEEKDTQLEFKKNELRKRTNELNELKIKSDEMDLQLKQKQNESKRLKDELNELETKFSENGSQSSAKENELKMLKNKIAELEEEISTKNSQLIAKEGKLASLMAQLTQLESKLNQRDSQLGSREEELKKTNDKLQKDIRIAREETVSKDERIIDLQKKVKQLENDLFVIKKTHSESKTITDNELESKDKLIKILENDLKVAQEKYSKMEKELKEREFNYKISESKLEDEKTTLNEKISNLAAENSQLKNKIEDNSTATHHMKENYEKQLESLRKDIEEYKESAKDSEDKIEELKIRIAENSAKVSEKRSKDIKQKDEQISDLTQNLKLQEDEISSLKSIIDRYKKDFNQLKSEQSNIQHDLNLQILNLENKLIESEDELKSLRDSQKIEIENWKRKYNNLSLENDRLLTEKESASDKEREISILNRKLDEMDKEKWNLQESKEKYKRELQKVITANDRLRREKEELNENSNNIRIMEDKMTRIKKNYLSEITSLQEENRRLEERLILNERRKDNDSTMQLNDIISYYKLKYHSEVRHNNDLKVINDYLNKVLALGTRRLRLDTRKGEHSLNISLPDDDELDRDYYNSHVYTRYHDYEYPLRFNLNRRGPYFERRLSFKTVALLVLACVRMKRIAFYRRSDDNRLRILRDRIESSSGRISW
B3: Spc29p (natural protein, UniProt P33419 1-253, looked up)
chain: MDYSNFGNSASKKFQDDTLNRVRKEHEEALKKLREENFSSNTSELGNKKHYRAQERMSSPLHRLSPTGKSDDRKVKSPLDDKLRRQLREGNTRLPPPPFSSYGMPPTNRSNLDRIRRRTSSPVRTDKFASQNVIDDQRLEIKYLERIVYDQGTVIDNLTSRITRLESFILNSISDRGDKNFASLEHSRSFSGFPTNKTYGLQMGGLYENDMPYRRSSDNINKEGAREDRSSQIHIENESTEDILKILSSSFHN

Chain of Mlp2p–protein A (PrA) (P40457 whole entry): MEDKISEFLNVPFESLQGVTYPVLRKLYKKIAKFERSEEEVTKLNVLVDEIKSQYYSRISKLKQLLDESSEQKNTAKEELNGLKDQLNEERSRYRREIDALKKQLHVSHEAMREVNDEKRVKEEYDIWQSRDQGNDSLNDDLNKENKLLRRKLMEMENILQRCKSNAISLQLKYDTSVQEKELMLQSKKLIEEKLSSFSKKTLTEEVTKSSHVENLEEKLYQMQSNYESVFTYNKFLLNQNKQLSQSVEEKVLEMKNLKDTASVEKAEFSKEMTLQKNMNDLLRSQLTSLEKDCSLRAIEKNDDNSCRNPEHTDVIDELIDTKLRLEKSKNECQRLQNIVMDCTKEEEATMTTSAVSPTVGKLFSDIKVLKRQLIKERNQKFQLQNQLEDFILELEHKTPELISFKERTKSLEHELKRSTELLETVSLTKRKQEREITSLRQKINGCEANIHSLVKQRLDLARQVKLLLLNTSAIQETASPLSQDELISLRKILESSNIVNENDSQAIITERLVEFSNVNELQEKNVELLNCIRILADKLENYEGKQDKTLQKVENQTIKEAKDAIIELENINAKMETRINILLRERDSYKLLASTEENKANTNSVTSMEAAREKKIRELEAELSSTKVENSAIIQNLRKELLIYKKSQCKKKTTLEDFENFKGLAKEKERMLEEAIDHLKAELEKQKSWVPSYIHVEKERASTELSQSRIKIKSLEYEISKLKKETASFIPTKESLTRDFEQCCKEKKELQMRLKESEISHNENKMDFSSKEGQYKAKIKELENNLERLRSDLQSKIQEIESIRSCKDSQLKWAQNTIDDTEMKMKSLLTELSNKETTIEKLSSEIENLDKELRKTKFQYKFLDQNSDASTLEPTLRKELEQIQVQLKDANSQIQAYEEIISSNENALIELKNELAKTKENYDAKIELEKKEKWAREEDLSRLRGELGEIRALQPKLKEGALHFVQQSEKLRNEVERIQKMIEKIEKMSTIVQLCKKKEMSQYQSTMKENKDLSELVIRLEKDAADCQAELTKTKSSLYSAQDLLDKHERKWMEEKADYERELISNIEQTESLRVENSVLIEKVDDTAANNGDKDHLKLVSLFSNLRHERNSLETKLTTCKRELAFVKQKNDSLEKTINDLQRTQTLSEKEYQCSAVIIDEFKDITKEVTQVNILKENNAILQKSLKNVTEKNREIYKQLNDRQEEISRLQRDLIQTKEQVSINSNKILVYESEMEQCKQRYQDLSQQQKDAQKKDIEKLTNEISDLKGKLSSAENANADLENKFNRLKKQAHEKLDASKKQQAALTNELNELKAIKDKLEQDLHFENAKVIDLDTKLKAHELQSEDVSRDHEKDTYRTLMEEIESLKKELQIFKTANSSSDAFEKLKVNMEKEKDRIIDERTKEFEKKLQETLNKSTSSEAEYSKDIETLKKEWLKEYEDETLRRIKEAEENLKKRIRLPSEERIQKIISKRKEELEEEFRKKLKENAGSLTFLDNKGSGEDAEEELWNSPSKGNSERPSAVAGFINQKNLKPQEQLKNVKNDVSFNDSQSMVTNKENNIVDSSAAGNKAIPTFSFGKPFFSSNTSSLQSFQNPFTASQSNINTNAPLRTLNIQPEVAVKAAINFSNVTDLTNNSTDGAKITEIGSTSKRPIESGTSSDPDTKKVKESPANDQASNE

This experiment concerns the target Mlp2p–protein A (PrA) (S. cerevisiae, UniProt P40457 1-1679). Put plainly: far-Western, overlay or dot blot.
Take B1: the binding result was “binds”.

For the molecule B2, the binding result is listed as “binds”.

Regarding B3, the binding result is recorded as “binds”.
